Positions count from the first letter of the chain named.
B1: V0022 (antibody, mouse IgG1, V domains shown)
VH: QVQLQQPGTELVKPGSSVNLSCKASGFTFTRYWMHWVKERPGHGLEWIGNINPNNGGTDFNEKFKNKATLTVHKSSTTVFIQLSSLTSEDSAVYYCARGTGTGAMDYWGQGTSVTVSS
VL: DVVMTQTPLSLPVSLGDQASISCRSSQSLVHNNGITYLYWYLQKPGQSPKLLIYRVSNRFSGVPDRFGGSGSGTDFTLKISRVEAEDLGVYFCFQGTHVPRTFGGGTKLEIK
B2: V0024 (antibody, mouse IgG1, V domains shown)
VH: QVQLQQPGTELVKPGASVKLSCKASGYTFTRFWMHWVKQRPGQGLEWIGNINPNNGGTDNNERFKSKATLTVDRSSSTAYMQLSSLTSEDSAVYYCARGTGTGAMDYWGQGTSVTVSS
VL: B1 VL with N32S, I35N, Y37H, N58S, G68S
B3: V0023 (antibody, mouse IgG1, V domains shown)
VH: B2 VH with R31I, Q43H, N50K, T58G, N60Y, R63K, R74K, S77T, M81L
VL: B1 VL with Q18H, N32S, Y37H, K44R, S48T, G68S, R82S, K112E

How the values were obtained:
Conditions in all cases: remark: other sources report otherwise
[1] = target: iPHF, P10636; experiment: Octet BLI, antibody on biosensor, iPHF in solution
[2] = target: T1, enriched paired helical filament tau protein (ePHF) (human), P10636; experiment: direct ELISA, ePHF coated
[3] = target: T1, enriched paired helical filament tau …; experiment: follow up analysis, method not stated

Sequence of iPHF, P10636 (P10636 other isoform, or with tags, fused parts or gaps): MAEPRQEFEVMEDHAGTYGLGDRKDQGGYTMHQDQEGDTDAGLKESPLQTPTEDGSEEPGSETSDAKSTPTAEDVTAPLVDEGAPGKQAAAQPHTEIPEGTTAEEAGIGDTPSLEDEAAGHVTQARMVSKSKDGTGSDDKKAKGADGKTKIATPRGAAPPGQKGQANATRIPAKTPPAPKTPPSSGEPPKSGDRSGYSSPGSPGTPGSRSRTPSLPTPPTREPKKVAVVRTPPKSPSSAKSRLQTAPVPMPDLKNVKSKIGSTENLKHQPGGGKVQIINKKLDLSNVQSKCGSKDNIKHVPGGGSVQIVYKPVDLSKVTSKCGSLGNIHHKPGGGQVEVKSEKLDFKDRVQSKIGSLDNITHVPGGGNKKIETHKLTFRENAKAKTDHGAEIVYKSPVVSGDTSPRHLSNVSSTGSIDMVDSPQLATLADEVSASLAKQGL
T1 sequence (P10636 other isoform, or with tags, fused parts or gaps limits assumed): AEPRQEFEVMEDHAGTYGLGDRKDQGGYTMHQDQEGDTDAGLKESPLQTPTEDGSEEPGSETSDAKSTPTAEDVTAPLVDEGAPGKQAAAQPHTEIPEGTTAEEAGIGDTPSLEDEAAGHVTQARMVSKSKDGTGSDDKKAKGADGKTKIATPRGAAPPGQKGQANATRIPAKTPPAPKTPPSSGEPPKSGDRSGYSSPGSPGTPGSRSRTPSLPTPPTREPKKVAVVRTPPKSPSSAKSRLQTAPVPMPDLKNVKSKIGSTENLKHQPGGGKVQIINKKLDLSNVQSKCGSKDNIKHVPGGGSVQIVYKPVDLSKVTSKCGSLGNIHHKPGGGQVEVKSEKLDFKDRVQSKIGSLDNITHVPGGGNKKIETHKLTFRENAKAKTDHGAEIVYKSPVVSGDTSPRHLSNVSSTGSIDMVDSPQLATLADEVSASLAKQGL

Row | Binder | Kd [1] [pM] | EC50 [2] [pM] | selectivity for ePHF over wild type tau [3] [fold]
1 | B1 | 300 |  | 
2 | B2 |  | 125 | > 100
3 | B3 | 4000 |  | 
